According to paper PMC6078440, “Structural and functional analysis of Dickkopf 4 (Dkk4): New insights into Dkk evolution and regulation of Wnt signaling by Dkk and Kremen proteins” (The Journal of Biological Chemistry, 2018):
Several values for one entry are separate records, joined by “and”; a condition that tells them apart may be missing. Equal values may be shown once.

B1: full-length mature Dkk4 (Dickkopf 4), residues 19-224, His-tagged (natural protein, human, UniProt Q9UBT3 19-224, looked up)
chain: LVLDFNNIRSSADLHGARKGSQCLSDTDCNTRKFCLQPRDEKPFCATCRGLRRRCQRDAMCCPGTLCVNDVCTTMEDATPILERQLDEQDGTHAEGTTGHPVQENQPKRKPSIKKSQGRKGQEGESCLRTFDCGPGLCCARHFWTKICKPVLLEGQVCSRRGHKDTAQAPEIFQRCDCGPGLLCRSQLTSNRQHARLRVCQKIEKL
modifications: uniformly 15N/13C/2H-labelled in the NMR experiments
notes: residues numbered from the N-terminal methionine; also called Dkk4FL

Tests used:
[1] = target: T1, Kremen1 extracellular domain Fc fusion protein (human, UniProt Q96MU8 21-392); assay: BLI; pH 6.5
T1 chain: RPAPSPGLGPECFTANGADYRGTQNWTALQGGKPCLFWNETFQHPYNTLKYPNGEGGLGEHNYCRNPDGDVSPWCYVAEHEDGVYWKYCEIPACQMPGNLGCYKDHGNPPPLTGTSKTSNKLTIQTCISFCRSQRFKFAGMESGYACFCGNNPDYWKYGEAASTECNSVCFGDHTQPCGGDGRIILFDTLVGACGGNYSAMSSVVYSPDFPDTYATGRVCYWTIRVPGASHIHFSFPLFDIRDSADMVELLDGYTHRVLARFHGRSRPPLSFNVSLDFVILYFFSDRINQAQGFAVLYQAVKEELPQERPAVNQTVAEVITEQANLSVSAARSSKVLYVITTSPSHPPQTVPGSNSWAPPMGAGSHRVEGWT

[2] = target: T2, LRP6 E1E2-Fc (β-propeller domains 1 and 2 of low-density lipoprotein receptor-related protein 6, Fc fusion) (human); assay: BLI; pH 7.5
T2 chain: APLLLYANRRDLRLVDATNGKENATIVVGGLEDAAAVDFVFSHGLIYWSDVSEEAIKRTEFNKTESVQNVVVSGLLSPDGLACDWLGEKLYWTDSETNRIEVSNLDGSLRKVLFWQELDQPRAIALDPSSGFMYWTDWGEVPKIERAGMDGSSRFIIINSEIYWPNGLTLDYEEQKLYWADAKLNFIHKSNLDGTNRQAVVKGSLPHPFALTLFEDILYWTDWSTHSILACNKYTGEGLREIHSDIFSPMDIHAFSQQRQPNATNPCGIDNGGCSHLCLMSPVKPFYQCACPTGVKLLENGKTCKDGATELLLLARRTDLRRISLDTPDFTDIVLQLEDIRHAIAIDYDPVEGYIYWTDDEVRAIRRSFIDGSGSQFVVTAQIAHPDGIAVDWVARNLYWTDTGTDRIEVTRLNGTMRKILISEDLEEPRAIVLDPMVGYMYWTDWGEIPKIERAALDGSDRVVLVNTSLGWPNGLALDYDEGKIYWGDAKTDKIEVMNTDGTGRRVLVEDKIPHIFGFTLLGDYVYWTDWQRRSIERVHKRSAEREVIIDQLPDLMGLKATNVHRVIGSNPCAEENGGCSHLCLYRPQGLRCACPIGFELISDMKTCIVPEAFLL

[3] = target: T3, Kremen1 extracellular domain Fc fusion protein (human, UniProt Q96MU8 21-392); assay: BLI; Krm1 ECD-Fc loaded from supernatants on AHC biosensors; Dkk2FL or Dkk4FL 1-1000 nM, Dkk4N 0.1-100 μM; 25 mM Na2HPO4, 100 mM NaCl, 0.05% Triton X-100, pH 6.5; steady-state fit to a one-site model; conditions: one partner purified
T3 construct: Kremen1 (Krm1), human, extracellular domain (kringle, WSC and CUB domains); also called Krm1 ECD-Fc; Krm1 ECD; source: expressed, in cell culture medium (supernatants); host in the supporting material
T3 sequence (looked up): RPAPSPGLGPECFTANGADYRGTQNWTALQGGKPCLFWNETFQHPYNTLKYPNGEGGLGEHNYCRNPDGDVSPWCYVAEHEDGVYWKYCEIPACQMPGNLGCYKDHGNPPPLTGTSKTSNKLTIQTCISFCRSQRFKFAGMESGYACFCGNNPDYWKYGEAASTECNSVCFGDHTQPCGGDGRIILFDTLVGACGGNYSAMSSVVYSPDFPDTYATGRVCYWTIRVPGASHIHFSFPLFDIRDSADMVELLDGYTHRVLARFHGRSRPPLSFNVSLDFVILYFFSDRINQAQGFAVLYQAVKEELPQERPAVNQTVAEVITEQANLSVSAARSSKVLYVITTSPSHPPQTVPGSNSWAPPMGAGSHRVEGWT

[4] = target: T2, LRP6 E1E2-Fc (β-propeller domains 1 and …); assay: BLI; pH 6.5
[5] = target: the molecule itself; assay: SEC; Superdex 75 10/300 GL, 3 μM Krm1 ECD in 50 mM Na2HPO4, 100 mM NaCl, pH 7.5; apparent masses from a calibration with globular standards; monomer and dimer
[6] = target: B1; assay: BLI; LRP6 E1E2-Fc (200 nM) loaded on AHC biosensors; Dkk4FL 1-1000 nM; 25 mM Na2HPO4, 100 mM NaCl, 0.05% Triton X-100, pH 6.5; steady-state fit to a one-site model; conditions: both partners purified
[7] = target: T4, N-terminal region of Dkk4 including CRD1, residues 19-97 (human, UniProt Q9UBT3 19-97); assay: BLI; LRP6 E1E2-Fc (200 nM) loaded on AHC biosensors; Dkk4N 0.1-100 μM; 25 mM Na2HPO4, 100 mM NaCl, 0.05% Triton X-100, pH 6.5 or 7.5 (not told which for the printed KD); later experiments with 0.1% BSA; steady-state fit to a one-site model; conditions: both partners purified
T4 construct: Dickkopf 4 (Dkk4), human, N-terminal region with the NXI(R/K) motif and CRD1, residues 19-97; residues numbered from the N-terminal methionine; construct details are in the supporting material; also called Dkk4N; isolated Dkk4N region; not shown: His6 (with linker), C-terminal, kept
T4 sequence (looked up): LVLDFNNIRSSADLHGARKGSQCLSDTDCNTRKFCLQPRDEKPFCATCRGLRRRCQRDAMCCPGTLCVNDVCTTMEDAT

**Q.** What does the source list for B1?
**A.** Kd [1]: 93.1 nM; Kd [2]: 48.7 nM and 55.6 nM; Kd [3]: 93 to 130 nM

B2: N-terminal region of Dkk4 including CRD1, residues 19-97 (domain or fragment)
chain: LVLDFNNIRSSADLHGARKGSQCLSDTDCNTRKFCLQPRDEKPFCATCRGLRRRCQRDAMCCPGTLCVNDVCTTMEDAT
**Q.** For B2, which Kd [4] is on record?
**A.** 11100 nM

B3: full-length mature Dkk2 (Dickkopf 2), residues 38-259, His-tagged (natural protein, human, UniProt Q9UBU2 38-259, looked up)
chain: IKSSLGGETPGQAANRSAGMYQGLAFGGSKKGKNLGQAYPCSSDKECEVGRYCHSPHQGSSACMVCRRKKKRCHRDGMCCPSTRCNNGICIPVTESILTPHIPALDGTRHRDRNHGHYSNHDLGWQNLGRPHTKMSHIKGHEGDPCLRSSDCIEGFCCARHFWTKICKPVLHQGEVCTKQRKKGSHGLEIFQRCDCAKGLSCKVWKDATYSSKARLHVCQKI
notes: also called Dkk2FL
**Q.** With B3 as the binder, how does the Kd [3] read?
**A.** ~12 nM

B4: isolated Kremen1 extracellular domain, Fc tag removed (domain or fragment, human, UniProt Q96MU8 21-392, looked up)
chain: RPAPSPGLGPECFTANGADYRGTQNWTALQGGKPCLFWNETFQHPYNTLKYPNGEGGLGEHNYCRNPDGDVSPWCYVAEHEDGVYWKYCEIPACQMPGNLGCYKDHGNPPPLTGTSKTSNKLTIQTCISFCRSQRFKFAGMESGYACFCGNNPDYWKYGEAASTECNSVCFGDHTQPCGGDGRIILFDTLVGACGGNYSAMSSVVYSPDFPDTYATGRVCYWTIRVPGASHIHFSFPLFDIRDSADMVELLDGYTHRVLARFHGRSRPPLSFNVSLDFVILYFFSDRINQAQGFAVLYQAVKEELPQERPAVNQTVAEVITEQANLSVSAARSSKVLYVITTSPSHPPQTVPGSNSWAPPMGAGSHRVEGWT
notes: Kremen1 (Krm1), human, extracellular domain (kringle, WSC and CUB domains); Eluted in SEC as monomer (35 kDa) and noncovalent dimer (70 kDa); also called Krm1 ECD; isolated Krm1 ECD; source: prepared from Krm1 ECD-Fc by removal of the Fc tag, size-exclusion chromatography; host in the supporting material
**Q.** Which “stoichiometry N” value [5] does the source give for B4 here?
**A.** 2

B5: LRP6 E1E2-Fc (β-propeller domains 1 and 2 of low-density lipoprotein receptor-related protein 6, Fc fusion) (Fc fusion)
chain: APLLLYANRRDLRLVDATNGKENATIVVGGLEDAAAVDFVFSHGLIYWSDVSEEAIKRTEFNKTESVQNVVVSGLLSPDGLACDWLGEKLYWTDSETNRIEVSNLDGSLRKVLFWQELDQPRAIALDPSSGFMYWTDWGEVPKIERAGMDGSSRFIIINSEIYWPNGLTLDYEEQKLYWADAKLNFIHKSNLDGTNRQAVVKGSLPHPFALTLFEDILYWTDWSTHSILACNKYTGEGLREIHSDIFSPMDIHAFSQQRQPNATNPCGIDNGGCSHLCLMSPVKPFYQCACPTGVKLLENGKTCKDGATELLLLARRTDLRRISLDTPDFTDIVLQLEDIRHAIAIDYDPVEGYIYWTDDEVRAIRRSFIDGSGSQFVVTAQIAHPDGIAVDWVARNLYWTDTGTDRIEVTRLNGTMRKILISEDLEEPRAIVLDPMVGYMYWTDWGEIPKIERAALDGSDRVVLVNTSLGWPNGLALDYDEGKIYWGDAKTDKIEVMNTDGTGRRVLVEDKIPHIFGFTLLGDYVYWTDWQRRSIERVHKRSAEREVIIDQLPDLMGLKATNVHRVIGSNPCAEENGGCSHLCLYRPQGLRCACPIGFELISDMKTCIVPEAFLL
**Q.** Which Kd [6] does the source give for B5 here?
**A.** 64 to 77 nM

**Q.** And the Kd [7]?
**A.** 11000 to 30000 nM
